Results: paper PMC11322411

Molecular target: GRK2-phosphorylated FLAG-tagged SMOOTHENED (near-full-length mouse SMO, residues 64-674) (mouse) (UniProt P56726)
Assay: pull-down; purified FLAG-SMO forms (18.2 uM) mixed with PKA-C (10 uM), captured on anti-FLAG M1 sepharose beads, 4°C 2 h; 20 mM HEPES pH 7.5, 150 mM NaCl, 3 mM CaCl2, 10 mM MgCl2, 1 mM ATP, 0.025% GDN, 1 uM SAG21k; eluted with FLAG peptide and EDTA; stain-free SDS-PAGE, densitometry

Chain of UniProt P56726 (P56726 64-674): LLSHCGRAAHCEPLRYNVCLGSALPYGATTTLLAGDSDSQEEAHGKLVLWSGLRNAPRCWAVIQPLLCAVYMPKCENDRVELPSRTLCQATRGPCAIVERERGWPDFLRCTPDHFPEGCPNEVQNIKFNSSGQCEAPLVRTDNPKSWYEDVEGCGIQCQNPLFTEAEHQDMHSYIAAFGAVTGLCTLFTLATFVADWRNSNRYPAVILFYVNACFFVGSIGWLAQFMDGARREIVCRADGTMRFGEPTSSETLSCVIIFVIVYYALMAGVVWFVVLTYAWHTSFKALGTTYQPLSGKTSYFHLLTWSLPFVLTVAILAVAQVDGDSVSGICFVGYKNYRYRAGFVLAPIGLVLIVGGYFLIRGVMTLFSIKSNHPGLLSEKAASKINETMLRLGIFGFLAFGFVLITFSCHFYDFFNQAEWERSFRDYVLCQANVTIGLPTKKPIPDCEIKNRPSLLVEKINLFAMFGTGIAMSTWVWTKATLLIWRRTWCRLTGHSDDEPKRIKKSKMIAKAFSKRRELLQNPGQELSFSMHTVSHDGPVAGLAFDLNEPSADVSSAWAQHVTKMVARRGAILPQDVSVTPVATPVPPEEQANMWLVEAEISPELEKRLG

PKA-C in the FLAG elution as percent of SMO: 25%
Substance: protein kinase A catalytic subunit (PKA-C), mouse (from UniProt P05132 1-351) (enzyme)
